This note sets out measurements from IntAct's records for PubMed 12172031.

The chains are these.
B1: Coronatine-insensitive protein 1 (Arabidopsis thaliana (Mouse-ear cress)), O04197 (parent)
chain: MEDPDIKRCKLSCVATVDDVIEQVMTYITDPKDRDSASLVCRRWFKIDSETREHVTMALCYTATPDRLSRRFPNLRSLKLKGKPRAAMFNLIPENWGGYVTPWVTEISNNLRQLKSVHFRRMIVSDLDLDRLAKARADDLETLKLDKCSGFTTDGLLSIVTHCRKIKTLLMEESSFSEKDGKWLHELAQHNTSLEVLNFYMTEFAKISPKDLETIARNCRSLVSVKVGDFEILELVGFFKAAANLEEFCGGSLNEDIGMPEKYMNLVFPRKLCRLGLSYMGPNEMPILFPFAAQIRKLDLLYALLETEDHCTLIQKCPNLEVLETRNVIGDRGLEVLAQYCKQLKRLRIERGADEQGMEDEEGLVSQRGLIALAQGCQELEYMAVYVSDITNESLESIGTYLKNLCDFRLVLLDREERITDLPLDNGVRSLLIGCKKLRRFAFYLRQGGLTDLGLSYIGQYSPNVRWMLLGYVGESDEGLMEFSRGCPNLQKLEMRGCCFSERAIAAAVTKLPSLRYLWVQGYRASMTGQDLMQMARPYWNIELIPSRRVPEVNQQGEIREMEHPAHILAYYSLAGQRTDCPTTVRVLKEPI

The first experiment covers variants of B1. The conditions noted are these: with skp1a_arath SKP1A.
E22A: the “effect of a mutation on the interaction” value was “decreasing interaction”.

Variants of B1 are the subject of the next experiment. The conditions noted are these: with skp1b_arath SKP1B.
As to E22A, the “effect of a mutation on the interaction” value is “decreasing interaction”.

Variants of B1 are the subject of the next experiment. The conditions noted are these: with cul1_arath CUL1, Q94AH6.
Sequence of cul1_arath CUL1, Q94AH6 (Q94AH6 whole entry): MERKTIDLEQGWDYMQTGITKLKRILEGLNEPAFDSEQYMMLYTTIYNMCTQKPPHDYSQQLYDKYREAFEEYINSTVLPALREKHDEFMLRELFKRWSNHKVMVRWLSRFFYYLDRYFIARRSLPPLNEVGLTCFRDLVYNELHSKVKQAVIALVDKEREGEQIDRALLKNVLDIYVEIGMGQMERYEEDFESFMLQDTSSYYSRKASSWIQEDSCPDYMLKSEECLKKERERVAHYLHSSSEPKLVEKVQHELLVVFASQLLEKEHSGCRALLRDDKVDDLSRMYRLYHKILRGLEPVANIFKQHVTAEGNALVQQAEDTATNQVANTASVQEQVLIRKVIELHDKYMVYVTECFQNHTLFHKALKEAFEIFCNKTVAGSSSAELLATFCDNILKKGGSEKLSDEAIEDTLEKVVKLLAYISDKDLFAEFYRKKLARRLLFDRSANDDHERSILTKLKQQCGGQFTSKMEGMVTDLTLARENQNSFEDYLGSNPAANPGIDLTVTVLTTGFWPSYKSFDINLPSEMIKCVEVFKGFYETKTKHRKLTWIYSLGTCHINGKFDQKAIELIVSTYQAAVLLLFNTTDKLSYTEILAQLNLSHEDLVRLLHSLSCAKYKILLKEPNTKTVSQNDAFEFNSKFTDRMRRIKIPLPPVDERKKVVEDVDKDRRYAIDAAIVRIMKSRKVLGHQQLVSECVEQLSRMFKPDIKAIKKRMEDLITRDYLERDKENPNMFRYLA
As to E22A, the “effect of a mutation on the interaction” value is “decreasing interaction”.
